Assay [1] deals with T1, human FolR1 on cells (human, UniProt P15328 25-234).
T1 construct: also called FolR1 on HeLa, SKOV3, HT-29 tumor cells; HEK cells transfected with human FolR1
Put plainly: flow cytometry on HeLa cells (human FolR1), fluorescently labeled anti-human secondary antibody. Background: Flow cytometry measures light scatter and fluorescence of single cells or particles in a stream.
Method: (§1) Binding of newly generated FolR1 binders to FolR1 expressed on HeLa cells were determined by flow cytometry. Bound antibodies were detected with a fluorescently labeled anti-human secondary antibody.
(§2) The identified binders were converted into a human IgG1 format and binding to FolR1 high expressing HeLa cells was addressed.

The target in assay [2] is T2, human FolR2 on transiently transfected HEK cells (human, UniProt P14207 17-230). The assay is described as follows: flow cytometry on HEK cells transiently transfected with human FolR2, anti-human secondary antibody; concentration not given.
Assay [3] concerns the target T3, cynomolgus FolR1 on transiently transfected HEK cells (cynomolgus, UniProt P15328 25-234 (human entry)).
T3 construct: also called cyno FolR1; cyFoLR1
The assay is described as follows: flow cytometry on HEK cells transiently transfected with cyno FolR1, anti-human secondary antibody.
From the text: Cross-reactivity of the FolR1 antibodies to cyno FolR1 was addressed on HEK cells transiently transfected with cyFolR1 by flow cytometry. The antibodies were detected with a fluorescently labeled anti-human secondary antibody.
In parallel cross-reactivity of the FolR1 clones to cyno FolR1 was addressed by performing binding studies to HEK cells transiently transfected with cyno FolR1.

Assay [4] deals with T4, human FolR2 ECD-AcTev-Fcknob-Avi tag + Fc hole, biotinylated monomeric Fc fusion (human, UniProt P0DOX5 223-449 = IgG part).
T4 construct: also called huFolR2; FolR2-Fc
Put plainly: SPR, IgG single injection. Background: Surface plasmon resonance follows binding to a sensor surface in real time, without labels.

The target in assay [5] is T5, murine FolR1 ECD-AcTev-Fcknob-Avitag + Fc hole, biotinylated monomeric Fc fusion (murine, UniProt P0DOX5 223-449 = IgG part).
T5 construct: also called muFolR1; murine FolR1-Fc
Put plainly: SPR, IgG single injection.

Assay [6] addresses T6, human FolR3 ECD-AcTev-Fcknob-Avi tag + Fc hole, biotinylated monomeric Fc fusion (human, UniProt P0DOX5 223-449 = IgG part).
T6 construct: also called huFolR3; FolR3-Fc
The assay is described as follows: SPR, IgG single injection.

The target in assay [7] is T1, human FolR1 on cells. Put plainly: flow cytometry on HeLa cells (human FolR1), fluorescently labeled anti-human secondary antibody. This is another data set of the same source.
Method: as §1, §2
The target in assay [8] is T7, human FolR1 ECD-AcTev-Fcknob-Avi tag + Fc hole, biotinylated monomeric Fc fusion (human, UniProt P0DOX5 223-449 = IgG part).
T7 construct: also called huFolR1; huFolR1-Fc
Put plainly: SPR, monovalent, antibody captured by anti-Fab.
Method: (§3) Binding of FolR1 binders as IgG or in the T-cell bispecific format to different recombinant folate receptors (human FolR1, 2 and 3, murine FolR1 and cynomolgus FolR1; all as Fc fusions) was assessed by surface plasmon resonance (SPR).
(§4) For affinity measurement, direct coupling of around 6000-7000 resonance units (RU) of the anti-human Fab specific antibody (Fab capture kit, GE Healthcare) was performed on a CM5 chip at pH5.0 using the standard amine coupling kit (GE Healthcare). Anti-FolR1 IgGs or T cell bispecifics were captured at 20 nM with a flow rate of 10 μl/min for 20 or 40 sec, the reference flow cell was left without capture. […] The dissociation phase was monitored for 240 sand triggered by switching from the sample solution to HBS-EP. The chip surface was regenerated after every cycle using a double injection of 60 sec 10 mM Glycine-HCl pH 2.1 or pH1.5. Bulk refractive index differences were corrected for by subtracting the response obtained on the reference flow cell 1. The affinity constants for the interactions were derived from the rate constants by fitting to a 1:1 Langmuir binding using the Bia Evaluation software (GE Healthcare).

Assay [9] concerns the target T8, cynomolgus FolR1 ECD-AcTev-Fcknob-Avi tag + Fc hole, biotinylated monomeric Fc fusion (cynomolgus, UniProt P0DOX5 223-449 = IgG part).
T8 construct: also called cyFolR1; cyno FolR1-Fc
The assay is described as follows: SPR, monovalent, antibody captured by anti-Fab.
Method: as §3, §4

The target of assay [10] is T7, human FolR1 ECD-AcTev-Fcknob-Avi tag + …. Put plainly: SPR, apparent KD, bivalent binding (avidity).
Method: as §3
(§5) Recombinant biotinylated monomeric Fc fusions of human, cynomolgus and murine Folate Receptor 1 (FolR1-Fc) were directly coupled on a SA chip using the standard coupling instruction (Biacore, Freiburg/Germany). The immobilization level was about 300-400 RU. The anti-FolR1 IgGs or T cell bispecifics were passed at a concentration range from 2.1 to 500 nM with a flow of 30 μL/minutes through the flow cells over 180 seconds. The dissociation was monitored for 600 seconds. Bulk refractive index differences were corrected for by subtracting the response obtained on reference flow cell immobilized with recombinant biotinylated IL2 receptor Fc fusion. […] The binding curves resulting from the bivalent binding of the IgGs or T cell bispecifics were approximated to a 1:1 Langmuir binding and fitted with that model (which is not correct, but gives an idea of the avidity). The apparent avidity constants for the interactions were derived from the rate constants of the fitting using the Bia Evaluation software (GE Healthcare).
The target of assay [11] is T8, cynomolgus FolR1 ECD-AcTev-Fcknob-Avi …. Put plainly: SPR, apparent KD, bivalent binding (avidity).
Method: as §3, §5
Assay [12] has as its target T7, human FolR1 ECD-AcTev-Fcknob-Avi tag + …. The assay is described as follows: SPR, bivalent binding (avidity), antigen on SA chip.
Method: as §3, §5
In assay [13] the target is T8, cynomolgus FolR1 ECD-AcTev-Fcknob-Avi …. The description is as above.
Method: as §3, §5
The target in assay [14] is T2, human FolR2 on transiently transfected …. The assay is described as follows: flow cytometry on HEK cells transiently transfected with human FolR2, anti-human secondary antibody; concentration not given. This is another data set of the same source.
Assay [15] has as its target T1, human FolR1 on cells. Put plainly: flow cytometry on HEK cells transiently transfected with human FolR1, anti-human secondary antibody; concentration not given.
The target in assay [16] is T1, human FolR1 on cells. The assay is described as follows: flow cytometry on HeLa cells (human FolR1), fluorescently labeled anti-human secondary antibody. The source holds these as a separate data set.
Method: as §1, §2
Assay [17] has as its target T7, human FolR1 ECD-AcTev-Fcknob-Avi tag + …. The assay is described as follows: SPR, IgG single injection.
Assay [18] concerns the target T8, cynomolgus FolR1 ECD-AcTev-Fcknob-Avi …. The assay is described as follows: SPR, IgG single injection.
The target in assay [19] is T9, cynomolgus TIM-3 on isolated cyno CD14+ monocytes (cynomolgus).
T9 construct: whole, on cells
Put plainly: flow cytometry, cyno CD14+ monocytes cyno3.
From the text: (§6) CD14+ Monocytes were isolated from cynomolgus monkey anticoagulated peripheral blood (Covance) by density gradient centrifugation using Ficoll-Paque (GE Healthcare) (see General Protocols in the User Manuals or visit www.miltenyibiotec.com/protocols) and subsequent positive selection via NHP CD14 MicroBeads. First the CD14+ cells are magnetically labeled with CD14 MicroBeads. Then the cell suspension is loaded onto a MACS® Column which is placed in the magnetic field of a MACS Separator. The magnetically labeled CD14+ cells are retained in the column. The unlabeled cells run through, this cell fraction is depleted of CD14+ cells. After removal of the column from the magnetic field, the magnetically retained CD14+ cells can be eluted as the positively selected cell fraction. After centrifugation at 200×g for 10 min at room temperature the monocytes were harvested and used directly in binding assay or resuspended in freezing medium (10% DMSO, 90% FCS) at 1.0E+07 cells/ml and stored in liquid nitrogen.
(§7) 1×10⁵ CD14+ isolated cyno monocytes (50 μl/well) were put into 98 well-v bottom MTP in fresh culture medium and incubated with Redimune® NF Liquid for 15 min at RT to block unspecific binding. Than 50 μl/well of Alexa488 labeled anti-TIM3 (10 μg/ml in cell culture medium) were added and incubated for 1 h at 4° C. After washing and centrifugation MFI signals of stained cells were analyzed by BD Biosciences FACSCanto flow cytometer.

Another assay addresses T10, Tim3-ECD-His-Biotin (human, UniProt Q8TDQ0 22-202).
T10 construct: also called human Tim3 (ELISA); Biochem Human
Put plainly: ELISA on Tim3-ECD-His-Biotin. On the technique in general: ELISA stands for enzyme-linked immunosorbent assay.

The target in assay [20] is T11, human TIM-3 on cells (human, UniProt Q8TDQ0 22-301).
T11 construct: also called CHO-Tim3; rec CHOK1 cells expressing huTIM-3
Put plainly: flow cytometry, human CD14+ monocytes donor2.
From the text: (§8) CD14+ Monocytes were isolated from anticoagulated peripheral blood of healthy donors by density gradient centrifugation using Ficoll-Paque (GE Healthcare) (see General Protocols in the User Manuals or visit www.miltenyibiotec.com/protocols) and subsequent positive selection via CD14 MicroBeads. First the CD14+ cells are magnetically labeled with CD14 MicroBeads. Then the cell suspension is loaded onto a MACS® Column which is placed in the magnetic field of a MACS Separator. The magnetically labeled CD14+ cells are retained in the column. The unlabeled cells run through, this cell fraction is depleted of CD14+ cells. After removal of the column from the magnetic field, the magnetically retained CD14+ cells can be eluted as the positively selected cell fraction. After centrifugation at 200×g for 10 min at room temperature the monocytes were harvested and used directly in binding assay or resuspended in freezing medium (10% DMSO, 90% FCS) at 1.0E+07 cells/ml and stored in liquid nitrogen.
(§9) 1×10⁵ CD14+ isolated human monocytes (50 μl/well) were put into 98 well-v bottom MTP in fresh culture medium and incubated with Redimune® NF Liquid for 15 min at RT to block unspecific binding. […] After washing and centrifugation MFI signals of stained cells were analyzed by BD Biosciences FACSCanto flow cytometer.

Assay [21] concerns the target T11, human TIM-3 on cells. The assay is described as follows: flow cytometry, human CD14+ monocytes donor1.
From the text: as §8, §9
Assay [22] has as its target T9, cynomolgus TIM-3 on isolated cyno CD14+ …. Put plainly: flow cytometry, cyno CD14+ monocytes cyno2.
From the text: as §6, §7
For assay [23], the target named is T12, huFc fused dimeric human Tim3-ECD (human, UniProt Q8TDQ0 22-202).
T12 construct: also called huTim3Fc; bivalent Tim3
The assay is described as follows: SPR Biacore, antibody captured by anti-mouse IgG.
Method: (§10) Therefore, an anti-mouse IgG was immobilized by amine coupling to the surface of a (Biacore) CM5 sensor chip. The samples were then captured and hu/cy Tim3-ECD was bound to them. The sensor chip surface was regenerated after each analysis cycle. The equilibrium constant KD was finally gained by fitting the data to a 1:1 langmuir interaction model.
(§11) Flow cell temperature was set to 25° C. and sample compartment temperature to 12° C. The system was primed with running buffer. The samples were injected for 30 seconds with a concentration of 200 μg/ml and bound to the spots 1 and 5 of each flow cell, allowing the measurement of eight samples in parallel. Then a complete set of different (monomeric cyno, monomeric human and huFc fused dimeric human Tim3-ECD) concentrations (s. Table X) was injected over each sample for 240 s followed by a dissociation time of 30/1800 s (s. Table 1). Each analysis cycle (sample capture, spot 1 and 5—Tim3 ECD injection) was then regenerated with a 30 seconds long injection of Glycine-HCl pH 1.7. The flow rate was set to 30 μl/min for the whole run. Finally, the double referenced data was fitted to a 1:1 langmuir interaction model with the Biacore B4000 Evaluation Software.

For assay [24], the target named is T13, monomeric human Tim3-ECD (human, UniProt Q8TDQ0 22-202).
T13 construct: also called huTim3
Put plainly: SPR Biacore, antibody captured by anti-mouse IgG.
Method: as §10, §11

Assay [25] addresses T11, human TIM-3 on cells. The assay is described as follows: flow cytometry, human CD14+ monocytes donor3.
From the text: as §8, §9
In assay [26] the target is T11, human TIM-3 on cells. The assay is described as follows: cell ELISA, CHO-K1 expressing human Tim3.
Method: Then the reaction was stopped by addition of 25 μl/well 1N HCL-solution.
Assay [27] concerns the target T11, human TIM-3 on cells. Put plainly: cell-based or functional assay.
The target of assay [28] is T13, monomeric human Tim3-ECD. Put plainly: SPR Biacore, monovalent Tim3.
Method: as §10, §11
For assay [29], the target named is T11, human TIM-3 on cells. The assay is described as follows: cell-based or functional assay. This is another data set of the same source.
Assay [30] concerns the target T9, cynomolgus TIM-3 on isolated cyno CD14+ …. Put plainly: flow cytometry, cyno CD14+ monocytes cyno1.
From the text: as §6, §7
Assay [31] addresses T12, huFc fused dimeric human Tim3-ECD. Put plainly: SPR Biacore, bivalent Tim3.
Method: as §10, §11

Residue numbers refer to the chain shown, from its start. Where two headings read alike, the source gives them in different places. A value given as a limit tells only on which side of the number the result lay.

T2 sequence (P14207 17-230 limits assumed): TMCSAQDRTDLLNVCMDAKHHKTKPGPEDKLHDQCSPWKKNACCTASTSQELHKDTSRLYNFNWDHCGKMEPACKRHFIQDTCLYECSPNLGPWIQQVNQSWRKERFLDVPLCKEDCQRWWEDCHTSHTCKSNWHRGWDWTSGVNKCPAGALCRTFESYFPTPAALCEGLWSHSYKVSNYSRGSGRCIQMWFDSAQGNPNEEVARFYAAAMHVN
T1 sequence (P15328 25-234 limits assumed): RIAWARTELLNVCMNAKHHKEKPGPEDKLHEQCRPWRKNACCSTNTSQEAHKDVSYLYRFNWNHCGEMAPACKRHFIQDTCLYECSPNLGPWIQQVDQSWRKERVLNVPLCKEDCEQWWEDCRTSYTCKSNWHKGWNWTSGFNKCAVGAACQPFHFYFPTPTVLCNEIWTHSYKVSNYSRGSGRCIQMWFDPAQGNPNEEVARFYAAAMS
T3 sequence (P15328 other isoform, or with tags, fused parts or gaps limits assumed): as the sequence (P15328 25-234 limits assumed) above, with I2T, W4R, R37K, Q117R, A146P, H171Y counted along it
Method for Tim3-ECD-His-Biotin: After washing (3×90 μl/well with PBST-buffer) 25 μl aTim3 samples or diluted (1:2 steps) reference antibody aTim3 F38-2E2 (Biolegend) was added and incubated 1 h at RT. After washing (3×90 μl/well with PBST-buffer) 25 μl/well sheep-anti-mouse-POD (GE NA9310V) was added in 1:9000 dilution and incubated at RT for 1 h while shaking at 400 rpm rotation. After washing (4×90 μl/well with PBST-buffer) 25 μl/well TMB substrate (Calbiochem, #CL07) was added and incubated until OD 1.5-2.5. Then the reaction was stopped by addition of 25 μl/well 1N HCL-solution.

B1: 9D11 IgG (antibody, V domains shown)
VH: QVQLVQSGAEVKKPGASVKVSCKASGYTFTSYYMHWVRQAPGQGLEWMGIINPSGGPTSYAQKFQGRVTMTRDTSTSTVYMELSSLRSEDTAVYYCARGDFAWLDYWGQGTLVTVSS
VL: not shown
notes: human IgG1
For B1, the binding result is reported as “binds” with human FolR1 on cells [1]; “no binding” in assay [2]; “binds” in assay [3]; “no binding (tested: 500 nM)” in assay [4]; “no binding (tested: 500 nM)” in [5]; “no binding (tested: 500 nM)” in assay [6].

B2: Mov19 IgG (antibody, V domains shown)
VH: QVQLQQSGAELVKPGASVKISCKASGYSFTGYFMNWVKQSHGKSLEWIGRIHPYDGDTFYNQNFKDKATLTVDKSSNTAHMELLSLTSEDFAVYYCTRYDGSRAMDYWGQGTTVTVSS
VL: DIELTQSPASLAVSLGQRAIISCKASQSVSFAGTSLMHWYHQKPGQQPKLLIYRASNLEAGVPTRFSGSGSKTDFTLNIHPVEEEDAATYYCQQSREYPYTFGGGTKLEIK
By EC50 (read off the curve) is commonly meant the concentration that produces a half-maximal response. The term koff denotes a measure of how fast the partners let go of each other. The term kon denotes a measure of how fast the partners come together. For B2, the “EC50 (read off the curve)” value in the assay with human FolR1 on cells [7] is approximately 1 µg/mL. Further, the Kd came to 0.55 nM in assay [8], 0.65 nM in [9], 0.14 nM in assay [10] and 0.108 nM in assay [11]. The off-rate constant (koff) was 0.000159 s⁻¹ in assay [8], 0.000193 s⁻¹ in assay [9], 0.000121 s⁻¹ in [12] and 0.000139 s⁻¹ in assay [13]. Moreover, the kon came to 289000 M⁻¹ s⁻¹ in assay [8], 297000 M⁻¹ s⁻¹ in assay [9], 861000 M⁻¹ s⁻¹ in assay [12] and 1.29e+06 M⁻¹ s⁻¹ in assay [13].

B3: 19E5 IgG (antibody, V domains shown)
VH: QVQLVQSGAEVKKPGASVKVSCKASGYTFTSYYMHWVRQAPGQGLEWMGIINPSGGSTSYAQKFQGRVTMTRDTSTSTVYMELSSLRSEDTAVYYCARGEWRRYTSFDYWGQGTLVTVSS
VL: QAVVTQEPSLTVSPGGTVTLTCGSSTGAVTTSNYANWVQEKPGQAFRGLIGGTNKRAPGTPARFSGSLLGGKAALTLSGAQPEDEAEYYCALWYSNLWVFGGGTKLTVL
notes: human IgG1
As for B3, the half-maximal effective concentration (EC50 (read off the curve)) in the assay with human FolR1 on cells [7] is approximately 2 µg/mL. The binding result in assay [14] is recorded as “binds”.

B4: 19A4 IgG (antibody, V domains shown)
VH: B3 VH with E100G, R102I, Y104W, T105E, S106H
VL: B3 VL
notes: human IgG1
As for B4, the binding result (with human FolR1 on cells [15]; in [14]) was “binds” in each case.

B5: 20G6 IgG (antibody, V domains shown)
VH: B3 VH with R102I, T105Y, S106H
VL: B3 VL
notes: human IgG1
On to B5, for which the binding result with human FolR1 on cells [16] is reported as “binds”; in assay [17] it was “no binding (tested: 500 nM)”; in assay [18], “no binding (tested: 500 nM)”; in [4], “no binding (tested: 500 nM)”; in [6], “no binding (tested: 500 nM)”.

B6: Tim3_0026 (antibody, V domains shown)
VH: QIQLVQSGPELKKPGETVKISCKASGYTFTDYSMHWVKQAPGRGLKWMGYINTETYEPTFGADFKGRFAFSLDTSATTAYLQINSLKTEDTATFFCGGGGYPAYWGQGTVVIVSA
VL: DVLMTQTPLSLPVSLGDQASISCRSSRTILHSSGNTYLEWYLQKPGQSPKLLIYKVSNRFSGVPDRFSGSGSGTDFTLNISRVEAEDLGVYYCFQDSHVPFTFGTGTKLEIK
Broadly, the EC50 is the concentration at which the effect is half-maximal. Low values mean greater potency, high ones weaker potency. For the molecule B6, the MFI in assay [19] was 197 MFI; in assay [22] it was 184 MFI; in assay [30], 137 MFI. The EC50 came to 0.047 µg/mL with Tim3-ECD-His-Biotin and 0.069 µg/mL with human TIM-3 on cells [26]. Further, the “specific binding MFI” value with human TIM-3 on cells [20] is 1020 MFI; with human TIM-3 on cells [21], 1660 MFI; with human TIM-3 on cells [25], 900 MFI. Besides, the Kd in [23] was 1.52 nM; with monomeric human Tim3-ECD [24], 6.23 nM; with monomeric human Tim3-ECD [28] it was 6.2 nM; in assay [31] it was 1.5 nM. Besides, in the assay with human TIM-3 on cells [27], the “IFN-gamma release in MLR at 1 µg/ml, % of IL-2 control” value turned out to be 18%. Moreover, in the assay with human TIM-3 on cells [27], the “IFN-gamma release in MLR at 10 µg/ml, % of IL-2 control” value was 16%. In addition, the “IFN-gamma release in MLR at 40 µg/ml, % of IL-2 control” value with human TIM-3 on cells [27] came to 25%. Also, in the assay with human TIM-3 on cells [29], the “IC50 cytotoxicity (anti-mFc Fab-PE24 sandwich), RPMI-8226” value is more than 64 nM.

B7: Tim3_0030 (antibody, V domains shown)
VH: QIQLVQSGPELKKPGETVKISCKASGYPFSEYSIHWVKQAPGKGLKWMVYVNTETGQPIVGDDFRGRFVLSLETSASTAYLQINNLKNEDTATYFCGGGGYPAYWGQGTLVTVSA
VL: B6 VL with T28S, L30V
Consider B7, for which the MFI in [19] is 144 MFI; in [22], 163 MFI; in assay [30], 119 MFI. Besides, the “specific binding MFI” value is 419 MFI with human TIM-3 on cells [20], 1410 MFI with human TIM-3 on cells [21] and 466 MFI with human TIM-3 on cells [25]. In addition, the results for the Kd (in assay [23]; in the assay with monomeric human Tim3-ECD [24]) were 1.28 nM and 3.11 nM, respectively. Further, the “IFN-gamma release in MLR at 1 µg/ml, % of IL-2 control” value with human TIM-3 on cells [27] came to 3%. Also, the “IFN-gamma release in MLR at 10 µg/ml, % of IL-2 control” value with human TIM-3 on cells [27] turned out to be 4%. For the same molecule, the “IFN-gamma release in MLR at 40 µg/ml, % of IL-2 control” value with human TIM-3 on cells [27] was 14%. The “IC50 cytotoxicity (anti-mFc Fab-PE24 sandwich), RPMI-8226” value in the assay with human TIM-3 on cells [29] was more than 64 nM.

Source of the values: patent US20210087291A1 (Hoffmann-La Roche, published 2021).
